Reference: patent US20070172423A1, “Composition and method for modulating vasculogenesis for angiogenesis” (priority 1998, published 2007)

Tests used:
NIH-3T3 fibroblast cells = test: NIH-3T3 proliferation assay; type: cell-based; details: two days, different concentrations
Experimental: Cell migration assays were performed on growth arrested confluent HMVEC, BAEC or hSMC cells. Cell monolayers were wounded with a rubber policeman and washed with serum-free medium. Dishes were then incubated for 20 hours in serum-free medium containing VEGF165, PDGF-AA, (R&D Systems, Minneapolis USA) or PDGF-CC. Each assay included two dishes per condition and was repeated three times independently. Cells were photographed at 40× magnification, and migration percentage corresponding to the ratio between area of the cells and the total area of the wound (Biocom visiol@b 2000 version 4.52, San Diego). For HMVEC proliferation assay, cells were seeded in 96-well plates (5 wells per condition), and incubated with VEGF, PDGF-AA, or PDGF-CC (50 ng/ml) after serum starvation. After 7 days, viable cells were counted using the cell Titer-glo luminescent cell viability assay. For NIH-3T3 and hSMC proliferation assay, cells cultured in 96-well plates were serum-starved overnight, followed by treatment with growth factors at different concentrations. Two days later, cell numbers were counted and proliferation percentage calculated, using cells cultured in medium containing 10% serum as control. Aortic ring assay was performed as described 51. […] Aortic rings were analysed at day 9 of culturing. […]

ischemic myocardium = test: Myocardial ischemia mouse model, Example 18
Experimental: Acute myocardial ischemia and hind limb ischemia mouse models were performed as previously described (Luttun et al., Nat Med, 2002 1:1; Heymans et al., Nat Med, 1999 5:1135-42). Subcutaneously implanted osmotic minipumps (Alzet, type 2001) were used for continuous protein delivery for 7 days. Human PDGF-CC core domain protein was produced as described (Li et al., Nat Cell Biol, 2000 2:302-309). Fluorescent or color dye microspheres (yellow, 15 μm, Molecular Probes) were administered after maximal vasodilatation (sodium nitroprusside, 50 ng/ml, Sigma) for blood flow measurement, and flow was calculated as described (Carmeliet et al., Nat Med, 1999 5:495-502). For histology, the hearts were harvested seven days after LAD ligation, and sectioned longitudinally (6 μm). Infarcted areas were morphologically inspected after immunohistochemistry staining using thrombomodulin (rabbit anti-TM, for all vessels) and smooth muscle alpha-actin (mouse anti-SMA, for mature SMC covered vessels, Dako), and vessel densities calculated. Gastrocnemius muscles after femoral artery ligation were sectioned transversally and analysed after H&E or immunostainings with the EC marker CD31 (PECAM, rat anti-CD31, Pharmingen). Vessel densities and tissue necrosis/regeneration in the gastrocnemius muscle were analyzed morphometrically using the KS300 image analysis soft ware (Zeiss). Remodeling of collateral vessels in the upper hindlimb after femoral ligation was quantified as reported (Luttun et al., Nat Med, 2002 1:1).
A previously established mouse model of myocardial ischemia was used to assess whether PDGF-CC is capable of stimulating the revascularization of ischemic myocardium. After coronary ligation, new vessels revascularize the ischemic core from its surrounding border region. For PDGF-CC to stimulate new vessel growth, its receptor, PDGFR-α, should be expressed in the heart. […] To examine whether PDGF-CC could stimulate revascularization of the ischemic myocardium, we delivered, using a minipump, continuously over one week after coronary ligation, recombinant human PDGF-CC core domain protein, which is known to bind and activate PDGFR-α (Li et al., Nat Cell Biol, 2000 2:302-309). […] After seven days, angiogenesis was quantified by counting the number of endothelial cell (EC)-lined vessels in the ischemic area after immunolabeling with thrombomodulin (TM). Vessel maturation (arteriogenesis) was evaluated by counting the arterioles, immunoreactive for smooth muscle cell α-actin (SMA).

[1] = 4.5 μg/day, minipump, seven days

B1: PDGF-CC: recombinant human PDGF-CC core domain homodimer, residues 230-345 of full-length PDGF-C (SEQ ID NO:40), produced in baculovirus infected insect cells (protein)
chain: GRKSRVVDLNLLTEEVRLYSCTPRNFSVSIREELKRTDTIFWPGCLLVKRCGGNCACCLHNCNECQCVPSKVTKKYHEVLQLRPKTGVRGLHKSLTDVALEHHEECDCVCRGSTGG
modifications: homodimer; PDGF-C core domain
- proliferation of cultured NIH-3T3 fibroblast cells (NIH-3T3 fibroblast cells): stimulated
- TM-positive vessel density (ischemic myocardium; 1.5 μg/day, minipump, seven days): minimally affected
- SMA positive vessels (ischemic myocardium; 1.5 μg/day, minipump, seven days, ischemic area): 53.1±3.7 vessels/mm^2
- increase in number of SMA-positive arterioles (ischemic myocardium; 1.5 μg/day, minipump, seven days, vs saline): 1.36 fold
- angiogenesis (TM-positive vessels in ischemic area) (ischemic myocardium; [1]): significantly stimulated
- arteriogenesis (SMA-positive arterioles in ischemic area) (ischemic myocardium; [1]): significantly stimulated
- blood flow (perfusion of the ischemic myocardial region) (ischemic myocardium; 4.5 μg/day, n=7-9): 2.2 ± 0.2 mL/min/g
- hemorrhage, edema or fibrosis in treated hearts (ischemic myocardium; minipump, seven days): No signs of hemorrhage, edema or fibrosis
- tolerability (weight loss, inactivity) (ischemic myocardium; minipump, seven days): no signs of toxicity
- vessel density in other organs (ischemic myocardium; non-ischemic organs): no differences
